Target: T1, BiP/GRP78 (endogenous) (human (endogenous in human HeLa cells), UniProt P11021 19-654)
T1 construct: Immunoprecipitated from cell lysates with BiP/GRP78 antibodies; also called ER chaperone BiP/GRP78
Experiment: co-IP with BiP/GRP78 antibodies, blot with Flag antibodies; wild type against C/F mutants; HeLa and P69 cells
Description: These mutants were used to examine whether disruption of these regions altered interaction with BiP/GRP78 in HeLa (FIG. 11E) and P69 cells. BiP/GRP78 was immunoprecipitated using BiP/GRP78 antibodies and the membrane was probed with Flag antibodies (FIG. 11E). The C/F helix mutants of MDA-7/1IL-24 and M4 lost their ability to bind to BiP/GRP78 (FIG. 11E).
Cells were infected with Ad.vec, Ad.M4 or Ad.mda-7 or transfected with various plasmid (Flag tagged MDA7 or M4 and Myc tagged BiP) constructs in a 100-mm dish and after 48 h cells were rinsed with ice-cold phosphate buffered saline (PBS). Cells were lysed in 1 ml of immunoprecipitation buffer containing 25 mM Tris-Cl pH8.0, 137 mM NaCl, 2.5 mM KCl, 1% Triton X-100 and protease inhibitor mix. Cells were scrapped from the plates, transferred into microfuge tubes and rotated at 4° C. for 30 minutes. Tubes were centrifuged for 10 min at 13,000 rpm and 10 μl of supernatant were incubated with 50% Protein A agarose and rotated at 4° C. for 1 h to eliminate non-specific interactions. Samples were centrifuged and mixed with anti BiP/Grp78 or 9E10 myc monoclonal antibodies (1:200) dilution and rotated overnight at 4° C. Immune-complexes were precipitated with 25 μl of 50% protein A agarose for 2 h. […]

T1 sequence (P11021 19-654 limits assumed): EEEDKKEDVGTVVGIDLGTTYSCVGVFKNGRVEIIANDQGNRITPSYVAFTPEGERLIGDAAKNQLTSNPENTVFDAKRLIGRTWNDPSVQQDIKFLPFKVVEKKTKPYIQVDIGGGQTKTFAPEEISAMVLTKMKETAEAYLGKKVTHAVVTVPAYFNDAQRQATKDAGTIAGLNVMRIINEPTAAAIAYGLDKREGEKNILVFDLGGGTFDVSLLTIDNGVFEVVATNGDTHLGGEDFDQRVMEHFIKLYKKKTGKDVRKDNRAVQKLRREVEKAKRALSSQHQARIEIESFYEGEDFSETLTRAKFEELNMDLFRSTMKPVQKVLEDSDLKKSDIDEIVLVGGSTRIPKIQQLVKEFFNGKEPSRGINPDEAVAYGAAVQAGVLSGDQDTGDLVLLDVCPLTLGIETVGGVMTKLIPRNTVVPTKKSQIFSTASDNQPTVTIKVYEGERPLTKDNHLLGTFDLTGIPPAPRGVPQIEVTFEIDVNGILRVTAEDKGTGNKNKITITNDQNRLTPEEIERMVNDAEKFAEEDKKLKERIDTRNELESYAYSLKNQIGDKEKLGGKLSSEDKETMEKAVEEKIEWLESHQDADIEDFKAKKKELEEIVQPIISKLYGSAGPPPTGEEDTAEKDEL

B1: Flag-tagged M4 (amino acids 104-206 of MDA-7/IL-24, pCMV3xFlag) (other)
chain: ESCYLVHTLLEFYLKTVFKNYHNRTVEVRTLKSFSTLANNFVLIVSQLQPSQENEMFSIRDSAHRRFLLFRRAFKQLDVEAALTKALGEVDILLTWMQKFYKL
notes: Transiently expressed in HeLa cells; also called Flag M4; not shown: three Flag tags at the N-terminus from vector pCMV3xFlag (Sigma)
B1: binds.
